Assay results as given in publication PMC12038006 (Nature Communications, 2025).

Biological target: T1, Rv1272c from Mycobacterium tuberculosis (Mycobacterium tuberculosis (Mtb) H37Rv, UniProt P9WQJ3 1-631)
T1 construct: also called subunit of Rv1273c/72c; not shown: Flag, C-terminal, kept
T1 sequence: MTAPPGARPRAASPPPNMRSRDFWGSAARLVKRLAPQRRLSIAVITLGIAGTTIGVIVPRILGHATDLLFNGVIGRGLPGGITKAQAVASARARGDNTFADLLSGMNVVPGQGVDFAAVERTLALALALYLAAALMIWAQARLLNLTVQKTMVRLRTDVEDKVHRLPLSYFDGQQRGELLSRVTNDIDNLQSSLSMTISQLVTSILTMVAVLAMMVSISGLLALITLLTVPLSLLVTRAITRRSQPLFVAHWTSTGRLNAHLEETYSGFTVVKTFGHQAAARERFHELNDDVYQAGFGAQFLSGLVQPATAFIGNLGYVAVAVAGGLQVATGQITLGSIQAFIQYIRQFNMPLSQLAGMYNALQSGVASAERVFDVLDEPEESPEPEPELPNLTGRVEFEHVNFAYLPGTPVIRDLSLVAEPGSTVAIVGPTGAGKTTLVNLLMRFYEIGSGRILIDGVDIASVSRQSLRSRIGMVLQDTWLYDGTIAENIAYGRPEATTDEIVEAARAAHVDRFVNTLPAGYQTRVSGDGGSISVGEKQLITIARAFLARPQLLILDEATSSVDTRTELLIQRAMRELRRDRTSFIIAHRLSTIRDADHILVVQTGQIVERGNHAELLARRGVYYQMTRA
Experiment: SEC
Conditions: both partners purified

B1: Rv1273c from Mycobacterium tuberculosis (natural protein)
chain: MLLALLRQHIRPYRRLVAMLMMLQLVSTLASLYLPTVNAAIVDDGVAKGDTATIVRLGAVMLGVTGLQVLCAIGAVYLGSRTGAGFGRDLRSAMFEHIITFSERETARFGAPTLLTRSTNDVRQILFLVQMTATVLVTAPIMCVGGIIMAIHQEAALTWLLLVSVPILAVANYWIISHMLPLFRRMQSLIDGINRVMRDQLSGVRVVRAFTREGYERDKFAQANTALSNAALSAGNWQALMLPVTTLTINASSVALIWFGGLRIDSGQMQVGSLIAFLSYFAQILMAVLMATMTLAVLPRASVCAERITEVLSTPAALGNPDNPKFPTDGVTGVVRLAGATFTYPGADCPVLQDISLTARPGTTTAIVGSTGSGKSTLVSLICRLYDVTAGAVLVDGIDVREYHTERLWSAIGLVPQRSYLFSGTVADNLRYGGGPDQVVTEQEMWEALRVAAADGFVQTDGLQTRVAQGGVNFSGGQRQRLAIARAVIRRPAIYVFDDAFSALDVHTDAKVHASLRQVSGDATIIVVTQRISNAAQADQVIVVDNGKIVGTGTHETLLADCPTYAEFAASQSLSATVGGVG
notes: also called subunit of Rv1273c/72c
stoichiometry N: 1
